The record followed here is patent publication US20160185859A1 (Pfizer, published 2016).

Numbering of substitutions follows the chain as printed. Numbers in names are those of the source. Read-outs that look alike come from different tables or passages of the source. A value given as a limit tells only on which side of the number the result lay.

For assay [1], the target named is T1, human 5T4 antigen expressed on cells (PC14PE6 cells; MDAMB435/5T4 cells) (human, UniProt Q13641 32-420).
T1 construct: PC14PE6 are human non-small cell lung cancer cells; also called 5T4-expressing PC14PE6 cells
T1 sequence: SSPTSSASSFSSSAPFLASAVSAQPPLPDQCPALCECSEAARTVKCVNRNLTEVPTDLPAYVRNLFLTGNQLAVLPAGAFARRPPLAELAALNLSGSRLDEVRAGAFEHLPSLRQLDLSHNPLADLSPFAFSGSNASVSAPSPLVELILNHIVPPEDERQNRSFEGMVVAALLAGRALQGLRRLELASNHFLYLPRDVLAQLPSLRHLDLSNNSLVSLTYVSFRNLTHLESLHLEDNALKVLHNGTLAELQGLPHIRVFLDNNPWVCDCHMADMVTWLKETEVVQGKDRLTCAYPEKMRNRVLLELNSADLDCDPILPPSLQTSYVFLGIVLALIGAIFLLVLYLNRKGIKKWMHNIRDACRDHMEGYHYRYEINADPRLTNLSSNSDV
The assay is described as follows: FACS of PC14PE6 cells.

For assay [2], the target named is T2, human 5T4 antigen (human, UniProt Q13641 32-355, limits assumed).
T2 sequence: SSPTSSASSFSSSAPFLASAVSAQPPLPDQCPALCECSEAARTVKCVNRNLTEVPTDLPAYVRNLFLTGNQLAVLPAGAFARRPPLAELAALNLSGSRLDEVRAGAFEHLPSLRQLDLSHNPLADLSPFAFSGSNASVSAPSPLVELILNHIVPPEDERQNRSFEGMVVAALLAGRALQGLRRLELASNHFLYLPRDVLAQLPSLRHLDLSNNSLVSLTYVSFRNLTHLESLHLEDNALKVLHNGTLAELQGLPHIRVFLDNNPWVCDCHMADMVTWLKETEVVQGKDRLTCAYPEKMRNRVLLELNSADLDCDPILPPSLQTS
Nature of the assay: BIACORE (SPR); human 5T4 antigen immobilized on CM5 chip. How it is done:
(§1) To assess the binding specificity and affinity of the A1, A2, and A3 antibodies, BIACORE® analysis was performed using human 5T4 antigen immobilized on a CM5 chip. BIACORE® technology utilizes changes in the refractive index at the surface layer upon binding of the antibody to the 5T4 antigen immobilized on the layer. Binding is detected by surface plasmon resonance (SPR) of laser light refracting from the surface. Analysis of the signal kinetics on rate and off rate allows discrimination between non-specific and specific interactions. The H8 anti-5T4 antibody was used as a control. H8 is a hybridoma-generated monoclonal mouse IgG1 antibody described in PCT International Publication No. WO 98/55607 and in Forsberg et al. (1997) J. Biol. Chem. 272(19):[…].

Assay [3] addresses T2, human 5T4 antigen. Nature of the assay: BIACORE; human 5T4 chip saturated with first antibody H8 (competitor). How it is done:
Epitope mapping of the H8, A1, A2, and A3 antibodies was also performed using BIACORE® using a CM5 chip with bound human 5T4 antigen. The chip was saturated with H8, A1, A2, or A3 antibody, and a first response was measured. The chip was then saturated with a second antibody from among the H8, A1, A2, and A3 antibodies, and a second response was measured. For multiple experiments, the chip was regenerated by dissociation of the bound antibodies in 10 mM glycine, pH 1.5, followed by a buffer wash. The percentages shown are the response units measured upon binding by a second antibody directly to the CM5 chip divided by the response units measured upon binding of the second antibody to a CM5 chip saturated with a first antibody.

The target in assay [4] is T2, human 5T4 antigen. Nature of the assay: ELISA; inhibition of biotinylated chimeric A1 antibody binding to human 5T4.
For assay [5], the target named is T2, human 5T4 antigen. Nature of the assay: BIACORE (SPR); human 5T4 antigen immobilized on CM5 chip. How it is done:
as §1
To assess the binding specificity and affinity of the chimeric and humanized H8, A1, A2, and A3 antibodies, BIACORE® analysis was performed using human 5T4 antigen immobilized on a CM5 chip. See Example 2.
The source holds these as a separate data set.

Assay [6] deals with chimpanzee 5T4 ectodomain Fc (chimpanzee; human, UniProt P01857 99-330 = IgG part). The assay is described as follows: ELISA; 5T4 ectodomain/Fc fusion protein from transiently transfected COS-1 cells; given as ED50. The protocol:
(§2) To assay binding of anti-5T4 antibodies, 5T4 ectodomain/Fc fusion proteins were transiently transfected into COS-1 cells, and ELISA assays were performed. Non-relevant human IgG4 and IgG1 antibodies were used as controls.

Assay [7] has as its target T3, human 5T4 ectodomain Fc (human, UniProt Q13641 32-355).
T3 construct: also called human 5T4 ectodomain Fc fusion protein; Human 5T4 Ectodomain/Fc Fusion; not shown: Fc constant regions from human IgG1
T3 sequence: T2 sequence
The description is as above. The protocol:
as §2

Assay [8] deals with T4, cynomologous monkey 5T4 ectodomain Fc (cynomologous monkey; human, UniProt Q4R8Y9 32-355).
T4 construct: not shown: Fc constant regions from human IgG1
T4 chain: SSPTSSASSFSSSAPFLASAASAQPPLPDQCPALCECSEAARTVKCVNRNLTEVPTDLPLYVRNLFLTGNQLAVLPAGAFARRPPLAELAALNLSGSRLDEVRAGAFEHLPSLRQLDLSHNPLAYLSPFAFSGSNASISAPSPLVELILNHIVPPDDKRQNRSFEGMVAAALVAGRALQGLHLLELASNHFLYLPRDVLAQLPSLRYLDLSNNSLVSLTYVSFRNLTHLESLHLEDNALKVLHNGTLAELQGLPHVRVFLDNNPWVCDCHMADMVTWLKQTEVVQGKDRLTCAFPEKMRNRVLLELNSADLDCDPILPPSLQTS
The assay is described as above. How it is done: as §2

Assay [9] has as its target T2, human 5T4 antigen. The assay is described as follows: BIACORE; human 5T4 chip saturated with first antibody humanized H8 (competitor); 19 s after injection of second antibody.
Assay [10] concerns the target T2, human 5T4 antigen. The assay is described as follows: BIACORE; human 5T4 chip saturated with first antibody humanized H8 (competitor); 75 s after injection of second antibody.
Assay [11] has as its target T2, human 5T4 antigen. Nature of the assay: BIACORE; human 5T4 chip saturated with first antibody humanized H8 (competitor); 150 s after injection of second antibody.
For assay [12], the target named is T2, human 5T4 antigen. The assay is described as follows: BIACORE; human 5T4 chip saturated with first antibody humanized H8 (competitor); 300 s after injection of second antibody.
In assay [13] the target is T2, human 5T4 antigen. Nature of the assay: BIACORE; human 5T4 chip saturated with first antibody humanized H8 (competitor); 600 s after injection of second antibody.
Assay [14] deals with T2, human 5T4 antigen. Nature of the assay: BIACORE; human 5T4 chip saturated with first antibody humanized H8 (competitor); 37.5 s after injection of second antibody.

B1: murine anti-5T4 antibody A2 (antibody, V domains shown)
VH: QVQLQQSRPELVKPGASVKMSCKASGYTFTDYVISWVKQRTGQGLEWIGEIYPGSNSIYYNEKFKGRATLTADKSSSTAYMQLSSLTSEDSAVYFCAMGGNYGFDYWGQGTTLTVSS
VL: QIVLTQSPAIMSASLGERVTLTCTASSSVNSNYLHWYQQKPGSSPKLWIYSTSNLASGVPARFSGSGSGTSYSLTISSMEAEDAATYYCHQYHRSPLTFGAGTKLELK
notes: also called muA2
As for B1, the “Mean Cellular Flouresence” value in [1] came out at 7. Moreover, in assay [2], the Ka amounted to 6.5e+07 M⁻¹, the Kd is 15 nM, the koff worked out at 0.00087 s⁻¹ and the kon amounted to 56000 M⁻¹ s⁻¹. Besides, in [3], the “percentage response of second antibody following saturation with first antibody” value was determined as 99%.

B2: huA1 VH v2.0 + huA1 VL v1.1 (antibody, V domains shown)
VH: EVQLVESGGGLVQPGGSLRLSCAASGYTFTNFGMNWVRQAPGKGLEWVAWINTNTGEPRYAEEFKGRFTISRDNAKNSLYLQMNSLRAEDTAVYYCARDWDGAYFFDYWGQGTLVTVSS
VL: DIVMTQSPDSLAVSLGERATINCKASQSVSNDVAWYQQKPGQPPKLLIYFATNRYTGVPDRFSGSGYGTDFTLTISSLQAEDVAVYYCQQDYSSPWTFGQGTKVEIK
notes: also called humanized A1 VH version 2.0 + humanized A1 VL version 1.1
As to B2, in [4], the half-inhibitory concentration (IC50) came to 28 nM.

B3: huA1 VH v2.0 + huA1 VL v3.1 (antibody, V domains shown)
VH: B2 VH
VL: EIVMTQSPATLSLSPGERATLSCKASQSVSNDVAWYQQKPGQAPRLLIYFATNRYTGIPARFSGSGYGTDFTLTISSLQPEDFAVYYCQQDYSSPWTFGQGTKVEIK
Molecule B3 yielded an IC50 in [4] of 27 nM.

B4: huA1 VH v2.0 + huA1 VL v2.4 (antibody, V domains shown)
VH: B2 VH
VL: DIQMTQSPSSLSASVGDRVTITCKASQSVSNDVAWYQQKPGKAPKLLIYFATNRYTGVPSRFSGSGYGTDFTLTISSLQPEDFATYYCQQDYSSPWTFGQGTKVEIK
Regarding B4, in assay [4], the IC50 was determined as 16 nM.

B5: chimeric A1 antibody bearing C67F mutation (antibody, V domains shown)
VH: QIQLVQSGPELKKPGETVKISCKASGYTFTNFGMNWVKQGPGEGLKWMGWINTNTGEPRYAEEFKGRFAFSLETTASTAYLQINNLKNEDTATYFCARDWDGAYFFDYWGQGTTLTVSS
VL: SIVMTQTPKFLLVSAGDRVTITCKASQSVSNDVAWYQQKPGQSPKLLINFATNRYTGVPNRFTGSGYGTDFTFTISTVQAEDLALYFCQQDYSSPWTFGGGTKLEIK
notes: also called Chimeric A1 + C67F; ChiA1+C67F
In assay [5], B5 gave a Ka of 2.6e+09 M⁻¹, a Kd of 0.38 nM, a koff of 6.3e-05 s⁻¹ and a kon of 170000 M⁻¹ s⁻¹.

B6: chimeric A3 antibody (antibody, human IgG4, V domains shown)
VH: EVQLVESGGGLVQPKGSLKLSCAASGFTFNTYAMNWVRQAPGKGLEWVARIRSKSNNYATYYADSVKDRFTISRDDSQSMLYLQMNNLKTEDTAMYCCVRQWDYDVRAMNYWGQGTSVTVSS
VL: DIVMTQSHIFMSTSVGDRVSITCKASQDVDTAVAWYQQKPGQSPKLLIYWASTRLTGVPDRFTGSGSGTDFTLTISNVQSEDLADYFCQQYSSYPYTFGGGTKLEIK
notes: also called ChiA3; ChiA3 γ4
The molecule B6 gave a Ka in assay [5] of approximately 5.4e+09 M⁻¹. This molecule had a Kd in assay [5] not above 0.18 nM. This molecule also displayed a koff in assay [5] not above 1e-05 s⁻¹. Further, the kon in assay [5] was approximately 54000 M⁻¹ s⁻¹. For the same molecule, the EC50 is 0.2 nM in [6], 0.2 nM in assay [7] and 0.23 nM in assay [8]. The “percentage of second antibody bound following saturation with first antibody” value came to 46.2% in assay [9]; 58.4% in assay [10]; 67.5% in assay [11]; 76.2% in assay [12]; 83.6% in assay [13]; 51.2% in assay [14].

B7: murine anti-5T4 antibody A3 (antibody, V domains shown)
VH: B6 VH
VL: B6 VL
notes: also called muA3
Take B7: the “Mean Cellular Flouresence” value in [1] worked out at 27. In assay [2], this molecule had a Ka of 4.6e+08 M⁻¹, a Kd of 2.2 nM, a koff of 5.2e-05 s⁻¹ and a kon of 24000 M⁻¹ s⁻¹. The “percentage response of second antibody following saturation with first antibody” value in assay [3] worked out at 73%.

B8: chimeric A3 antibody bearing C91Y mutation (antibody, V domains shown)
VH: B6 VH with C97Y
VL: B6 VL
notes: also called Chimeric A3 + C91Y; ChiA3+C91Y
For the molecule B8, in assay [5], the Ka was 1.7e+09 M⁻¹, the Kd amounted to 0.59 nM, the koff stood at 1.6e-05 s⁻¹ and the kon was 27000 M⁻¹ s⁻¹.
